Experimental data reported in US20250270343A1 (Alector, published 2025).

Key:
[1] = molecular target: T1, soluble mouse GPNMB (recombinant extracellular domain) (mouse, UniProt Q99P91 23-502); assay: SPR Carterra, Ab immobilized
T1 construct: also called moGPNMB; not shown: C-terminal polyhistidine or Avi-His tag
T1 sequence: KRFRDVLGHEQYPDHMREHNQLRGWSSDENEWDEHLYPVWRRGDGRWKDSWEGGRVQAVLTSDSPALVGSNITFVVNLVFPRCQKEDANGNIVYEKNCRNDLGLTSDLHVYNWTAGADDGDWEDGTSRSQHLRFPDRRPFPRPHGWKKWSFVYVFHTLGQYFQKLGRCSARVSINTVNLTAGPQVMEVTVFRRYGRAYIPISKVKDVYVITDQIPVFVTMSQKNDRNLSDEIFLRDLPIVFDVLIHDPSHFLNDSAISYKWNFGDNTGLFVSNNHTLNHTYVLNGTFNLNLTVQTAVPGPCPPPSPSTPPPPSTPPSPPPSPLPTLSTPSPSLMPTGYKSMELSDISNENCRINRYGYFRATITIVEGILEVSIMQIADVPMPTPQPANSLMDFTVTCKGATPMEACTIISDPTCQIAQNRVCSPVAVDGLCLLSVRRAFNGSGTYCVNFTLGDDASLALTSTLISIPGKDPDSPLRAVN
Procedure: Binding kinetics of human anti-GPNMB IgG1 antibodies of the present disclosure to human, cynomolgus, and mouse GPNMB were evaluated using a Carterra LSA instrument (Carterra, Salt Lake City, UT). […] A HC200M sensor chip (Carterra) was activated using the single channel flow cell with a 7-minute injection of a 1:1:1 mixture of 100 mM MES pH 5.5, 100 mM sulfo-NHS, 400 mM EDC (all reconstituted in MES pH 5.5; 100 μl of each mixed in vial immediately before running assay). After switching to the multi-channel array flow cell, the antibodies were injected over the activated chip in a 96-spot array for 15 minutes. The remaining unconjugated active groups on the chip were then blocked by injecting 1M Ethanolamine pH 8.5 (Carterra) for 7 minutes using the single channel flow cell.
After priming with running buffer (HBS-EP+, Teknova) with 0.5 mg/ml BSA (Sigma), the immobilized anti-GPNMB antibodies were tested for their ability to bind to several forms of recombinant GPNMB extracellular domain, including human, cynomolgus, and mouse orthologs as described above. Estimates of affinity were generated by injecting each analyte over the entire antibody array using the single channel flow cell. GPNMB analytes were diluted to 2.5, 7.4, 22, 67, 200, and 600 nM in running buffer, and injected in serial from lowest to highest concentration without regeneration. Two buffer blanks were run between each series (one species per series). Data were processed and analyzed using Kinetics high-throughput kinetics analysis software (Carterra).

[2] = molecular target: T2, mouse GPNMB endogenously expressed on B16F10 cells (mouse, UniProt Q99P91 23-574); assay: FACS titration, B16F10 cells
T2 construct: whole, on cells; also called moGPNMB
T2 sequence (looked up): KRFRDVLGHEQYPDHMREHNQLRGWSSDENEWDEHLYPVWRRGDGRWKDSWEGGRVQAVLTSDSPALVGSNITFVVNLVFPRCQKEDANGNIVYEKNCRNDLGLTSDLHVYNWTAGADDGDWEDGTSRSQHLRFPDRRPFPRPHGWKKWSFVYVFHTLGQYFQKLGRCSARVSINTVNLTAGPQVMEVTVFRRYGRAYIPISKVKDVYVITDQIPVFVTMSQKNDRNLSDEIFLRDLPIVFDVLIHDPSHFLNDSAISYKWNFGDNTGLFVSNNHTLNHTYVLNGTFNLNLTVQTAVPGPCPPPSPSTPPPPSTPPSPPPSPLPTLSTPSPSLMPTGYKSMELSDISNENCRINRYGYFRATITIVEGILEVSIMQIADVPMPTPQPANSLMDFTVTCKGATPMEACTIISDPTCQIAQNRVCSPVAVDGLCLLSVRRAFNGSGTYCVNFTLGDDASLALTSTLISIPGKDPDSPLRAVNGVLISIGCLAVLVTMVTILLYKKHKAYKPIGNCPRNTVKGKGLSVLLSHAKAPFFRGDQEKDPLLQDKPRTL
Procedure: Cell-based binding measurements were also performed to measure the apparent affinities of anti-GPNMB antibodies of the present disclosure to cell-surface expressed GPNMB. Serial dilutions of the monoclonal anti-GPNMB antibodies were added to 100,000 Freestyle293-huGPNMB+ or B16F10 cells and allowed to achieve binding equilibrium at 4° C. After addition of fluorescently labeled secondary antibody and brief washing steps, MFI values as a function of titrated antibody concentration was recorded via FACS analysis. Curves were fit using nonlinear regression analysis with Graphpad Prism 6 software.

[3] = molecular target: T2, mouse GPNMB endogenously expressed on …; assay: FACS, B16F10 cells
Procedure: Recombinant anti-GPNMB antibodies of the present disclosure were examined for their ability to bind human and/or mouse GPNMB expressed on Freestyle293-huGPNMB+ or B16F10 cells, respectively. B16F10 cells are a murine melanoma cell line from a C57BL/6J mouse that endogenously express high levels of mouse GPNMB. The antibodies were also tested for their ability to bind to a human macrophage cell line (U937 cells) engineered to express human GPNMB. Cells were harvested, plated at 100,000 cells/well in a 96-well round bottom plate, and incubated in 100 μl FACS buffer (PBS containing 2% FBS, 2 mM EDTA) containing anti-GPNMB monoclonal antibodies of the present disclosure for 30 minutes on ice. Cells were then washed and incubated in 100 ul FACS buffer containing 1 μg/ml APC-conjugated anti-human IgG secondary antibody for 30 minutes in ice. Cells were washed twice in cold FACS buffer and acquired on a BD FACS Canto. Data analysis and calculation of MFI values was performed with FlowJo (TreeStar) software version 10.0.7. […]

[4] = molecular target: T3, soluble mouse GPNMB-Fc polypeptide (mouse IgG2A Fc) (mouse, UniProt Q99P91 23-502); assay: FACS, enhancing of moGPNMB-Fc binding to SVEC4-10 cells
T3 construct: extracellular domain; bought (R&D System); also called moGPNMB-Fc; mGPNMB-Fc; not shown: Fc region of mouse IgG2A
T3 sequence (looked up): T1 sequence
Procedure: Purified full-length anti-GPNMB antibodies of the present disclosure were evaluated for their ability to block binding of moGPNMB-Fc to SVEC4-10 cells to determine the ligand blocking potency of each anti-GPNMB monoclonal antibody. Briefly, 2 μg/mL moGPNMB-Fc (mouse IgG2A Fc) diluted in binding buffer was pre-complexed with increasing concentrations of anti-GPNMB antibody of the present disclosure or human IgG1 isotype control antibody in 96-well plates. Subsequently, 100,000 SVEC4-10 cells were added per well and incubated on ice for 30 minutes. Soluble moGPNMB-Fc bound to cell surface was detected with fluorescent anti-mouse IgG2A secondary antibody and measured on FACSCanto. (FIG. 5A and FIG. 5B) IC50 values (for antibodies that block moGPNMB-Fc cell binding) and EC50 values (for antibodies that enhance moGPNMB-Fc cell binding) based on changes in MFI values were calculated (average+standard error) for each anti-GPNMB antibody and listed in Table 6. In Table 6, NA indicates no activity. […] In all cases, certain anti-GPNMB antibodies of the present disclosure blocked soluble GPNMB binding to cells, while other anti-GPNMB antibodies of the present disclosure enhanced soluble GPNMB binding to cells.

[5] = molecular target: T4, soluble human GPNMB (recombinant extracellular domain) (human, UniProt Q14956 23-498); assay: SPR Carterra, Ab amine-coupled
T4 construct: also called huGPNMB; recombinant human GPNMB extracellular domain; not shown: C-terminal polyhistidine or Avi-His tag
T4 sequence: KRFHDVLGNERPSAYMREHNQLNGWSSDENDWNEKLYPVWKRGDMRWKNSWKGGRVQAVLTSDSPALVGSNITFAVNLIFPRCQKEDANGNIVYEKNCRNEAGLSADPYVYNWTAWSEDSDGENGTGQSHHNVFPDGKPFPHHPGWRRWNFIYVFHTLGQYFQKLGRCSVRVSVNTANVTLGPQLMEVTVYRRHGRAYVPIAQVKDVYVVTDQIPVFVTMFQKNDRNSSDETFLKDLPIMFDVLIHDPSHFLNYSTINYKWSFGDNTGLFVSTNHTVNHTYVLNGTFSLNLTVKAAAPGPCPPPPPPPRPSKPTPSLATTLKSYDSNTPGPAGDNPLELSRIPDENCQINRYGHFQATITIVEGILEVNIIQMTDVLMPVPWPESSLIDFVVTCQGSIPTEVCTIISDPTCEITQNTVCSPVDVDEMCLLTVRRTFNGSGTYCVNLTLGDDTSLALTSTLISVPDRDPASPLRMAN
Procedure: (§1) Additionally, one of the anti-GPNMB antibodies of the present disclosure was evaluated using a Carterra LSA instrument (Carterra, Salt Lake City, UT). Briefly, the anti-GPNMB antibody was immobilized in duplicate spots onto an HC30M sensor chip (Carterra) by amine coupling according to the instrument manufacturer's recommended protocol. After priming with running buffer (see above) the immobilized antibody was tested for its ability to bind to recombinant human, cynomolgus, and mouse GPNMB. Analytes were diluted to 600 nM in running buffer, then further diluted 3-fold serially to 200 nM, 67 nM, 22.2 nM, 7.4 nM, and 2.5 nM. Analyte at each concentration was injected for five minutes over the entire chip using the single channel flow cell. Dissociation was measured for 5 min, followed by regeneration of the chip with two 30-second injections of 10 mM glycine, pH 2.0. The data were analyzed using the NextGenKIT high-throughput kinetics analysis software from Carterra.

[6] = molecular target: T5, soluble cynomolgus GPNMB (recombinant extracellular domain) (cynomolgus, UniProt Q14956 23-499 (human entry), limits assumed); assay: SPR Carterra, Ab amine-coupled
T5 chain: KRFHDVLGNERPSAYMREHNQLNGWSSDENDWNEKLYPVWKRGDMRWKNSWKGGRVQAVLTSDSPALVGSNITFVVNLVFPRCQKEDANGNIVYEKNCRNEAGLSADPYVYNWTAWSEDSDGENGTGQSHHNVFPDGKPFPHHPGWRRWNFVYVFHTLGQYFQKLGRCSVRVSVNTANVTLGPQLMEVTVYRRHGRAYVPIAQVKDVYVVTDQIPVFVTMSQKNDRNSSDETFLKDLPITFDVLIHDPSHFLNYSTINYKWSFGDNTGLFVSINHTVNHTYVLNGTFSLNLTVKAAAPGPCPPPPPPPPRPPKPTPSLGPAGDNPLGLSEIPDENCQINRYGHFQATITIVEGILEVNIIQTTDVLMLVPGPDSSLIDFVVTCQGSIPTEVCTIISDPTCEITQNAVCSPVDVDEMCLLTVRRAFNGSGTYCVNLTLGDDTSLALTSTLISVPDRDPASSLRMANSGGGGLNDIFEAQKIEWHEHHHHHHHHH
Procedure: as §1

[7] = molecular target: T1, soluble mouse GPNMB (recombinant …); assay: SPR Carterra, Ab amine-coupled
Procedure: as §1

[8] = molecular target: T6, soluble human GPNMB-Fc polypeptide (human, UniProt Q14956 23-498, limits assumed); assay: FACS, Fab2 enhancing huGPNMB-Fc binding to SVEC4-10 cells
T6 construct: also called huGPNMB-Fc; not shown: Fc domain
T6 sequence (looked up): T4 sequence
Procedure: (§2) Purified recombinant Fab2 fragments of select anti-GPNMB antibodies of the present disclosure were produced through transient transfection and purified. Briefly, 2 ug/mL soluble mouse or human GPNMB-Fc diluted in binding buffer was pre-complexed with increasing concentrations of anti-GPNMB Fab2 fragments in 96-well plates. Subsequently, 100,000 SVEC4-10 cells were added per well and incubated on ice for 30 minutes. Soluble moGPNMB-Fc or huGPNMB-Fc bound to cell surface was detected with fluorescent anti-human IgG1 secondary antibody and measured on FACSCanto. IC50 and EC50 values based on changes in MFI values were calculated for each antibody.

[9] = molecular target: T7, soluble mouse GPNMB-Fc polypeptide (Fc of human IgG1 or mouse IgG2A, not specified for the assay) (mouse, UniProt Q99P91 23-502); assay: FACS, Fab2 blocking moGPNMB-Fc binding to SVEC4-10 cells
T7 construct: extracellular domain; also called moGPNMB-Fc; mGPNMB; not shown: Fc region of human IgG1 or mouse IgG2A; in the Fab2 assay detected with anti-human IgG1 secondary antibody
T7 sequence (looked up): T1 sequence
Procedure: as §2

B1: anti-GPNMB antibody GPN-33 (antibody, human IgG1, V domains shown)
VH: EVQLVESGGSLVQPGGSLKLSCVASGYTFSNYWMDWVRQTPGKSLEWIGEINTDGSKTNYAPSIKDRFTISRDNAKSTLYLQMSNVKADDTAIYYCTRGPGAWGQGTSVTVSS
VL: DIVMTQTPLSLSVAIGQSASISCKSSQSLKFSDGKTYLNWVFQSPGQSPKRLIYQVSKLDSGVPDRFSGTGSETDFILKISRVEAEDLGVYYCCQGSYSPWTIGGGTKLELK
notes: chimeric
- Kd [1]: < 0.3 nM
- koff [1]: < 1e-05 s⁻¹
- kon [1]: 40000 M⁻¹ s⁻¹
- EC50 [2]: 17.8 nM
- MFI fold over background [3]: 20.9 fold
- EC50 [4]: 0.79 nM

B2: anti-GPNMB antibody GPN-81 (antibody, V domains shown)
VH: QVQLQESGPGLVKPSETLSLTCTVSGISITTGNYRWSWIRQPPGKGLEWIGYIYYSGTITYNPSLKSRVTITRDTSKNQFSLELSSVTAADTAVYYCARDLTHWYFDVWGQGTLVTVSS
VL: DIVMTQSPDSLAVSLGERATINCKSSESVDYYGIGFLNWYQQKPGQPPKLLIYAASTQGSGVPDRFSGSGSGTDFTLTISSLQAEDVAVYYCQQSKEVPPTFGGGTKVEIK
notes: humanized GPN-52
- Kd [5]: 135 nM
- koff [5]: 0.0098 s⁻¹
- kon [5]: 76000 M⁻¹ s⁻¹
- Kd [6]: 107 nM
- koff [6]: 0.01 s⁻¹
- kon [6]: 97000 M⁻¹ s⁻¹
- Kd [7]: 12 nM
- koff [7]: 0.0019 s⁻¹
- kon [7]: 180000 M⁻¹ s⁻¹

B3: recombinant Fab2 fragment of anti-GPNMB antibody GPN-61 (other)
VH: DVQLQESGPGLVKPSQTVFLTCTVTGISITTGNYRWSWIRQFPGNKLEWIGYIYYSGTITYNPSLTSRTTITRDTPKNQFFLEMSSLTAEDTATYFCARDLRHWYFDVWGTGTTVTVSS
VL: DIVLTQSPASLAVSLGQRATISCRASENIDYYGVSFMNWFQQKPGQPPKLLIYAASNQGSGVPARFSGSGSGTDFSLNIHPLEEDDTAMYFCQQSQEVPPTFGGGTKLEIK
notes: also called GPN-61 Fab2
- EC50 [8]: 9.05 nM
- IC50 [9]: 1.56 nM
